Assay results reported in patent publication US20250189530A1 (STCUBE, published 2025).

Tests used:
Assay in all cases: western blot, relative to WT
[1] = molecular target: peptide 4 WT expressed by HEK293T cells (human)
[2] = molecular target: peptide 4 variant A371G expressed by HEK293T cells (human)
[3] = molecular target: peptide 4 variant C375A expressed by HEK293T cells (human)
[4] = molecular target: peptide 4 variant D369A expressed by HEK293T cells (human)
[5] = molecular target: peptide 4 variant E361A expressed by HEK293T cells (human)
[6] = molecular target: peptide 4 variant E363A expressed by HEK293T cells (human)
[7] = molecular target: peptide 4 variant G365A expressed by HEK293T cells (human)
[8] = molecular target: peptide 4 variant T368A expressed by HEK293T cells (human)
[9] = molecular target: peptide 4 variant V374A expressed by HEK293T cells (human)

- % binding Rel. Quant. [1]: 100%
- % binding Rel. Quant. [2]: 9.41%
- % binding Rel. Quant. [3]: 277%
- % binding Rel. Quant. [4]: 0.178%
- % binding Rel. Quant. [5]: 48.3%
- % binding Rel. Quant. [6]: 67.6%
- % binding Rel. Quant. [7]: 86.8%
- % binding Rel. Quant. [8]: 10.4%
- % binding Rel. Quant. [9]: 49.6%
B1: STC43H11-1 (antibody, V domains shown)
VH: QSLEESGGRLVTPGGSLTLTCTVSGIDLSSYAMGWVRQAPGEGLEWIGSIGTGGGTGYASWAKGRFTISKTSTTVDLKMTSLTASDTATYFCATSNLWGPGTLVTVSS
VL: QVLTQTASPVSAAVGGTVTINCQASQSVYNNNRCSWFQQKPGQPPKRLIYHTSTLDSGVPSRFKGSGSGTQFTLTISDVQCDDAATYYCLGNYDCSRADCAAFGGGTEVVVK
notes: From immunized New Zealand rabbits; IgG heavy chain and Kappa light chain; also called clone #43H11; Clone 43H11
